Columns and labels:
Assay in all cases: flow cytometry on transiently transfected cells
[1] = target: T1, TNFR2 on transiently transfected cells (UniProt P20333 23-461, limits assumed)
T1 construct: whole, on cells
T1 sequence (looked up): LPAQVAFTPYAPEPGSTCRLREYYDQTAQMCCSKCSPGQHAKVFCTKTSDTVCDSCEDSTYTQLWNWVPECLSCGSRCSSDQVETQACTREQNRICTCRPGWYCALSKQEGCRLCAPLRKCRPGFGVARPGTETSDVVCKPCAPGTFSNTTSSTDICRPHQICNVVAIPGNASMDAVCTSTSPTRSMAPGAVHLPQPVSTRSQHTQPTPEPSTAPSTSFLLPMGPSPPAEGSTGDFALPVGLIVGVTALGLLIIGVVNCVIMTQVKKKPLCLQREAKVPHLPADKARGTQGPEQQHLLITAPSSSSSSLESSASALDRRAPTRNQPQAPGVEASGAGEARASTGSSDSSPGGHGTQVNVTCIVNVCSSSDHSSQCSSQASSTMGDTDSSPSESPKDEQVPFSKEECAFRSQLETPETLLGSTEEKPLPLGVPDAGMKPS
Procedure: (§1) One million cells, in 0.1 ml of FACS buffer (PBS, 0.1% BSA, 0.1% NaN₃), were incubated with 0.1-1 microgram of protein or antibody at RT for 15 min. The cells were washed with 3 ml of FACS buffer, reacted with biotinylated primary antibody, and stained with PE-conjugated secondary antibody at RT for 15 min. Cells were then washed again, resuspended in 0.5 microgram/ml of propidium iodide, and live cells were gated and analyzed on a FACScan using the CellQuest software (BD Biosciences).

[2] = target: T2, CD30 on transiently transfected cells (UniProt P28908 19-595, limits assumed)
T2 construct: whole, on cells
T2 sequence (looked up): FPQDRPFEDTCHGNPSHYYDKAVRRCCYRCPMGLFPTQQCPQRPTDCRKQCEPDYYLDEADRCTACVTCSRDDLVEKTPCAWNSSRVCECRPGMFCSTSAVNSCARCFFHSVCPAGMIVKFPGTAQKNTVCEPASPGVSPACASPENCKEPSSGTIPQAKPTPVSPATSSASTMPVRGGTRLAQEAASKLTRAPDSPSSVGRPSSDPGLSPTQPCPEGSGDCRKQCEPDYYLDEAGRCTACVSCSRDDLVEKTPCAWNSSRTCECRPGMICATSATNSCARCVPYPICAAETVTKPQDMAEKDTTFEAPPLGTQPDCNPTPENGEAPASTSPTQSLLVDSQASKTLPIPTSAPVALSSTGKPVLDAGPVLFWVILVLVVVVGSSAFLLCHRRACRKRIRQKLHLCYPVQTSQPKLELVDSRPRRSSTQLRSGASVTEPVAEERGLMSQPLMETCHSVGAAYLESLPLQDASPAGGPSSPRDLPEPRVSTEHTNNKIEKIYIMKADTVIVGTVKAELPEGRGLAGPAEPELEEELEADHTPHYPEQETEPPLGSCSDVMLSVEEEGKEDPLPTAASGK
Procedure: as §1

[3] = target: T3, DR5 on transiently transfected cells (UniProt O14763 56-440, limits assumed)
T3 construct: whole, on cells
Procedure: as §1

[4] = target: T4, DR6 on transiently transfected cells (UniProt O75509 42-655, limits assumed)
T4 construct: whole, on cells
T4 sequence (looked up): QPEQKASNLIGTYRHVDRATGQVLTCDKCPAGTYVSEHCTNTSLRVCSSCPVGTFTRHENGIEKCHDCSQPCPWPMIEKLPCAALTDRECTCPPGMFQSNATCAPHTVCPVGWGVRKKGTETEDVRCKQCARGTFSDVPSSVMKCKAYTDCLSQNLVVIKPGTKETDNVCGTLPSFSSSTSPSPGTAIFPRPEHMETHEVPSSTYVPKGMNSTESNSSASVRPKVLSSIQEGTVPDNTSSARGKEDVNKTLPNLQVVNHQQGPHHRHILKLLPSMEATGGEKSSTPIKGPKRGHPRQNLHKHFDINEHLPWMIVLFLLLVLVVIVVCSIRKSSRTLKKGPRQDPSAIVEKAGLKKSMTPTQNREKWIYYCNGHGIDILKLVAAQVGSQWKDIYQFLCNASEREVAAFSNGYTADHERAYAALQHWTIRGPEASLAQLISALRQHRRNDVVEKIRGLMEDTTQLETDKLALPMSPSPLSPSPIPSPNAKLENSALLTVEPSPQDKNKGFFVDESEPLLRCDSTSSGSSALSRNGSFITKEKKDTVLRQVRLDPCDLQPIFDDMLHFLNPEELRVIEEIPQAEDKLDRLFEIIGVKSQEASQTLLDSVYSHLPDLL
Procedure: as §1

[5] = target: T5, DcR2 on transiently transfected cells (UniProt Q9UBN6 56-386, limits assumed)
T5 construct: whole, on cells
T5 sequence (looked up): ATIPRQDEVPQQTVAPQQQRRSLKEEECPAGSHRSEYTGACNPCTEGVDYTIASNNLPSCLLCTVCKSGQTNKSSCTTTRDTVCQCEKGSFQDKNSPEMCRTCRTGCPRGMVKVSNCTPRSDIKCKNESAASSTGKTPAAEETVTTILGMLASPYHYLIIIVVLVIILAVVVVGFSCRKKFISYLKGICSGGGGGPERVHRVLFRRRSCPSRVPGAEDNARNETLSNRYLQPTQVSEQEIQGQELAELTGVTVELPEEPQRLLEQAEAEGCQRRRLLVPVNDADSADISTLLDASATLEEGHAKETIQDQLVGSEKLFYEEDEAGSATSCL
Procedure: as §1

[6] = target: T6, RANK on transiently transfected cells (UniProt Q9Y6Q6 30-616, limits assumed)
T6 construct: whole, on cells
T6 sequence (looked up): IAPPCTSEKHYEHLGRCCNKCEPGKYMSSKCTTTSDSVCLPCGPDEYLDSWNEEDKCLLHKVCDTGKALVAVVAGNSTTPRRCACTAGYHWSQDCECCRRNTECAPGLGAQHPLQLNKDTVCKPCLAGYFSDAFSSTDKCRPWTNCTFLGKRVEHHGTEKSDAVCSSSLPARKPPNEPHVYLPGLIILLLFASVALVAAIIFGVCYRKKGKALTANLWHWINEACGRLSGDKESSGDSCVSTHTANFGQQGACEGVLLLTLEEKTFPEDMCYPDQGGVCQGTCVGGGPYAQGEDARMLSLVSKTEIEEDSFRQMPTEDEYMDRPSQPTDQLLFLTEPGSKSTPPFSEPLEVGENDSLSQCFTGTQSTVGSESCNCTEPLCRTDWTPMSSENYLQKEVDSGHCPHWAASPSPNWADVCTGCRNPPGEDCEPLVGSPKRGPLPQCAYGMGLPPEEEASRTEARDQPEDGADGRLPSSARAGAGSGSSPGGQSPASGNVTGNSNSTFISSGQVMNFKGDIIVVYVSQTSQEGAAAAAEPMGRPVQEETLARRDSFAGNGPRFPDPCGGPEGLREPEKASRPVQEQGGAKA
Procedure: as §1

Measured: binding result

B1: FLAG-tagged soluble form of TNF-gamma-beta (aa 72-251) (ligand)
chain: LKGQEFAPSHQQVYAPLRADGDKPRAHLTVVRQTPTQHFKNQFPALHWEHELGLAFTKNRMNYTNKFLLIPESGDYFIYSQVTFRGMTSECSEIRQAGRPNKPDSITVVITKVTDSYPEPTQLLMGTKSVCEVGSNWFQPIYLGAMFSLQEGDKLMVNVSDISLVDYTKEDKTFFGAFLL
notes: also called FLAG-TL1β; FLAG-TNF-gamma-beta; not shown: FLAG tag of the pFLAG-CMV-1 vector at the amino terminus
no binding: all assays above

Source: patent US20030198640A1 (Human Genome Sciences, published 2003)
